Laboratory results from paper PMC11579972 (Small (Weinheim an Der Bergstrasse, Germany), 2024).

How the values were obtained:
[1] = biological target: T1, An‐FD, Pro‐Asp‐(Phe‐Asp)5‐Pro; assay: MST
T1 peptide: PDFDFDFDFDFDP

[2] = biological target: T1, An‐FD, Pro‐Asp‐(Phe‐Asp)5‐Pro; assay: ITC
[3] = biological target: T2, Sc‐FD (a scrambled version of An‐FD); assay: ITC
T2 peptide: DFFPDDPFDFFDD

[4] = biological target: T3, An‐FD, Pro‐Asp‐(Phe‐Asp)5‐Pro; assay: other fluorescence titration
T3 chain: PDFDFDFDFDFDP

- Kd [1]: 50 ± 8 µM
- Kd [2]: ~40 µM
- dH [2]: -8.37 kcal/mol
- stoichiometry N [2]: 1.12
- dH [3]: 1.43 ± 2.87 kcal/mol
Binder: PKFKFKFKFKFKP [Cat‐FK, Pro‐Lys‐(Phe‐Lys)5‐Pro]
- critical coassembly concentration (CCC) at 25% An-FD [4]: 0.096, 0.058, and 0.14 mM
- critical coassembly concentration (CCC) at 50% An-FD [4]: 0.096, 0.058, and 0.14 mM
- critical coassembly concentration (CCC) at 75% An-FD [4]: 0.096, 0.058, and 0.14 mM
